Series [1] addresses Archaeoglobus fulgidus malate dehydrogenase mutant 1 (R102Q) (Archaeoglobus fulgidus). As to the kind of experiment: SEC-MALS; SEC-MALLS with refractometry; Enrich 650 column, 50 mM Tris-HCl pH 7.2, 50 mM NaCl, room temperature, 50 ul at ~1 mg/ml, 0.5 ml/min; self-association (dimer). For orientation: SEC sorts molecules by how far they enter the pores of the column.
Series [2] concerns the target Archaeoglobus fulgidus malate dehydrogenase mutant 3 (R102Q and P250I) (Archaeoglobus fulgidus). Described as above.
Series [3] deals with Archaeoglobus fulgidus malate dehydrogenase mutant 2 (P250I) (Archaeoglobus fulgidus). Described as above.
Substrate in series [4]: CC(=O)C(=O)O
The series can be described thus: purified protein. It counts as biochemical, Archaeoglobus fulgidus. Conditions: 0.5 mM NADH, MES pH 6.0, 50 mM NaCl, 70 °C (340 K in Figure 3).

Substrate in series [5]: O=C(O)CC(=O)C(=O)O
As to the kind of experiment: purified protein. The format is biochemical, Archaeoglobus fulgidus. Conditions: 0.5 mM NADH, 50 mM potassium phosphate pH 7.0, 50 mM NaCl.

Series [6] deals with the molecule itself. As to the kind of experiment: SEC-MALS; SEC-MALLS with refractometry; Enrich 650 column, 50 mM Tris-HCl pH 7.2, 50 mM NaCl, room temperature, 50 ul at ~1 mg/ml, 0.5 ml/min; self-association (dimer).
Setting [7] is: mutant 3, sigmoid (homotropic activation).
Setting [8] is: 70 °C (340 K in Figure 3), substrate inhibition at excess OAA.
The mark [9] stands for this setting: 70 °C (340 K in Figure 3), mutant 2, hyperbolic, text b25 gives 1.31 mM.

Where a chain is given by its changes, count along the chain named. In names and notes the source's numbering stands.

Usually stoichiometry N stands for the number of molecules, sites or subunits per partner or assembly. For the molecule “Archaeoglobus fulgidus malate dehydrogenase mutant 1 (R102Q) (enzyme)”, the stoichiometry N in series [1] was 2.
Take “Archaeoglobus fulgidus malate dehydrogenase mutant 3 (R102Q and P250I) (enzyme)”: the stoichiometry N in series [2] worked out at 2.
Regarding “Archaeoglobus fulgidus malate dehydrogenase mutant 2 (P250I) (enzyme)”, the stoichiometry N in series [3] turned out to be 2.

B1: Wt A. fulgidus MalDH (Archaeoglobus fulgidus DSM 4304; P216I/R81Q) (protein)
chain: MKLGFVGAGRVGSTSAFTCLLNLDVDEIALVDIAEDLAVGEAMDLAHAAAGIDKYPKIVGGADYSLLKGSEIIVVTAGLAQKPGMTRLDLAHKNAGIIKDIAKKIVENAPESKILVVTNPMDVMTYIMWKESGKPRNEVFGMGNQLDSQRLKERLYNAGARNIRRAWIIGEHGDSMFVAKSLADFDGEVDWEAVENDVRFVAAEVIKRKGATIFGIAVAIYRMVKAVVEDTGEIIPTSMILQGEYGIENVAVGVPAKLGKNGAEVADIKLSDEEIEKLRNSAKILRERLEELGY
notes: full-length, codon-optimized synthetic gene in pET-20a (NdeI/BamHI), E. coli BL21 DE3 pLysS; no tag mentioned; homodimer, theoretical 72 kDa (SEC-MALLS 62-65 kDa)
A word on the kcat: it is the maximal rate divided by the concentration of active sites. For orientation: kcat/Km means the second-order rate constant that governs catalysis at low substrate concentration. As for B1, in “purified protein [4]” (setting [7]), the K0.5 was 100 mM, the kcat was 21 s⁻¹ and the kcat/Km was found to be 210 M⁻¹ s⁻¹.

B2: Wt A. fulgidus MalDH (Archaeoglobus fulgidus DSM 4304; R81Q) (protein)
chain: B1 chain with I216P
notes: as for B1
As for B2, in “purified protein [4]” (mutant 1, pH 6.0), the K0.5 is given as 5.6 mM, the kcat came to 40 s⁻¹ and the specificity constant (kcat/Km) was 7100 M⁻¹ s⁻¹. Further, in “purified protein [5]” (70 °C, mutant 1, pH 7.0), the K0.5 worked out at 14 mM, the kcat was 12 s⁻¹ and the kcat/Km turned out to be 900 M⁻¹ s⁻¹.

B3: Wild-type Archaeoglobus fulgidus malate dehydrogenase (enzyme)
chain: B1 chain with Q81R, I216P
notes: synthetic gene codon-optimised for E. coli, in pET-20a (NdeI/BamHI); No tag is mentioned; purification was by heat treatment, ion exchange and gel filtration; Homodimer; also called Wt A. fulgidus MalDH; Wt enzyme; source: E. coli BL21 DE3 pLysS, purified (70 °C heat step, Q sepharose, gel filtration)
With B3, in the series “purified protein [5]” (setting [8]), the K0.5 worked out at 0.1 mM, the kcat turned out to be 417 s⁻¹ and the kcat/Km came to 4.3e+06 M⁻¹ s⁻¹. Moreover, the “stoichiometry N” value in series [6] came out at 2.

B4: Wt A. fulgidus MalDH (Archaeoglobus fulgidus DSM 4304; P216I) (protein)
chain: B1 chain with Q81R
notes: as for B1
Regarding B4, in “purified protein [5]” (setting [9]), the K0.5 amounted to 1.3 mM, the kcat is 175 s⁻¹ and the kcat/Km stood at 130000 M⁻¹ s⁻¹.
